Data from patent US20120328625A1.
Blank lines part the entries; values can stand above or below the substance they belong to.

Tests used:
[1] = target: Shh-N in conditioned medium (human) (UniProt Q15465); test: cell-based or functional assay
[2] = target: full length human Shh expressed on the cell surface (human) (UniProt Q15465); test: cell-based or functional assay
[3] = target: full length human Shh expressed on the cell surface (human) (UniProt Q15465); test: flow cytometry, transfected against parental 293T cells
[4] = target: biotinylated human Shh (human) (UniProt Q15465); test: ELISA, biotin-Shh coated at 500 ng/ml on neutravidin; antibody 1 ug/ml
[5] = target: full length human Shh expressed on the cell surface (human) (UniProt Q15465); test: FMAT, antibody 10 µg/ml on 293T cells transiently expressing human Shh
[6] = target: full length human Shh expressed on the cell surface (human) (UniProt Q15465); test: flow cytometry, transfected against parental 293T cells; antibody 2 ug/ml
[7] = target: full length human Shh expressed on the cell surface (human) (UniProt Q15465); test: flow cytometry, transfected against parental 293T cells; antibody 0.2 ug/ml
[8] = target: full length human Shh expressed on the cell surface (human) (UniProt Q15465); test: flow cytometry, transfected against parental 293T cells; antibody 0.02 ug/ml
[9] = target: full length human Shh expressed on the cell surface (human) (UniProt Q15465); test: flow cytometry, antibody 2 µg/ml, 293T cells transiently expressing human Shh
[10] = target: full length human Shh expressed on the cell surface (human) (UniProt Q15465); test: flow cytometry, 293T cells transiently transfected with human Shh; antibody 2 ug/ml
[11] = target: full length human Shh expressed on the cell surface (human) (UniProt Q15465); test: flow cytometry, 293T cells transiently transfected with human Shh; antibody 0.2 ug/ml
[12] = target: full length human Shh expressed on the cell surface (human) (UniProt Q15465); test: flow cytometry, 293T cells transiently transfected with human Shh; antibody 0.02 ug/ml

- % Inhibition of Gli1 reporter, Conditioned Media N = 1, 20 µg/ml [1]: 2%
- % Inhibition of Gli1 reporter, Conditioned Media N = 2, 20 µg/ml [1]: 23%
- % Inhibition of Gli1 reporter, Co-Culture N = 1, 20 µg/ml [2]: 18%
- % Inhibition of Gli1 reporter, Co-Culture N = 2, 20 µg/ml [2]: 7%
- % Inhibition of Gli1 reporter, Co-Culture N = 3, 20 µg/ml [2]: 2%
Substance: huIgG2/4 (antibody)

- Ratio [3]: 0.7
- OD [4]: 4.81 OD
- FL1 X COUNT [5]: 1.47e+06
- Ratio [6]: 443
- Ratio [7]: 106
- Ratio [8]: 13.7
- X Geo Mean (Transients) [9]: 3
- X Geo Mean (Transients) [10]: 965
- X Geo Mean (Transients) [11]: 221
- X Geo Mean (Transients) [12]: 28.5
Substance: rat anti-Shh antibody (cat# MAB4641, R&D Systems, Inc.)

- IC50, inhibition of osteoblast differentiation (alkaline phosphatase) of C3H10T1/2 cells [1]: 2.9 nM
Substance: 5E1 (antibody)
